This assay deals with T1, Coactosin (Entamoeba histolytica, UniProt C4M4P4).
T1 chain: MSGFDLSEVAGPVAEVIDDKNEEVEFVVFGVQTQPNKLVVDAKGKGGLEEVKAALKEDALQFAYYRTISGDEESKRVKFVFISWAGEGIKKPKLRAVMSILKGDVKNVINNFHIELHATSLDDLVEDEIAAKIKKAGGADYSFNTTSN
Put plainly: SPR.

B1: EhP3 (protein)
chain: MAESREDCVFLSKLAEQSERYDEMVQYMKQVAALNTELSVEERNLLSVAYKNVIGSRRASWRIITSLEQKEQAKGNDKHVEIIKGYRAKIEDELAKYCDDVLKVIKENLLPNASTSESKVFYKKMEGDYYRYYAEFTVDEKRQEVADKSLAAYTEATEISNADLAPTHPIRLGLALNFSVFYYEIMNDADKACQLAKQAFDDSIAKLDEVPESSYKDSTLIMQLLRDNLTLWTSDTADEE
Molecule B1 had a dissociation constant Kd of 3000 nM.

(Values after article PMC6541287 (2019).)
